# According to the DeepSol protein solubility set:
# Test: soluble on expression in E. coli; label from the status in PepcDB or PDB records
row,Sequence,soluble on expression in E. coli
1,MAKIVLVLYDAGKHAADEEKLYGCTENKLGIANWLKDQGHELITTSDEEGGNSVLDQHIPDADIIITTPFHPAYITKERIDKAKKLKLVVVAGVGSDHIDLDYINQTGKKISVLEVTGSNVVSVAEHVVMTMLVLVRNFVPAHEQIINHDWEVAAIAKDAYDIEGKTIATIGAGRIGYRVLERLVPFNPKELLYYDYQALPKDAEEKVGARRVENIEELVAQADIVTVNAPLHAGTKGLINKELLSKFKKGAWLVNTARGAICVAEDVAAALESGQLRGYGGDVWFPQPAPKDHPWRDMRNKYGAGNAMTPHYSGTTLDAQTRYAQGTKNILESFFTGKFDYRPQDIILLNGEYVTKAYGKHDKK,soluble
2,MGQGQSVILSFEDGARTVELARESVEAFVQNGQREQPGSMRDAFYNRTSAFVRLESTRGRGRLRGCAGAHGSIHELGNHDQQLGHAIVEAAIEAASEASCGSEVEDAELPNIRVSVCTVSNLVLTDDPIEDIELGVHGVAIDGDGQHGWMYPTLPVENDWSVFEYLDRTCRKANLPDGAWQDEDVMVTLFEGQVFRETGDEDDPVEELTALEHHHHHH,not soluble
3,MPLVGQNVFKSSVTEYDAQTPVVYTVYNEVHQDLLNNTVFLKALADAIDSEIQAAREGKASLLANLQSIRLALQSGSANFGGPAGTTITHNLGTTNFRVSITPTANPDGYLGEIWVVKSSNTMTVFNSGDFRGAFDYQIFKN,not soluble
4,MQEDTLTSRGNMPYSLNVLIPLSCDLRPPVPQAIHAGRVDHRELGFVHPVSPGDVVAEVLVPAGEHFSPEVAQHLIGEGCALGDASTEHTEGQGVPVVATRSGHLDWDERALAVRDTLVVDEDVTYHVGNIRYFGDLIVRGMVRVAFRVRARSLLVEGLIEGAFIECERLEARGGVKAGGSGRLRVRETVAAPFMENAIVHAGSHVVVSGSSLHNEIKSNASVQVAERLIGGMTAARDSITVGERLGGGMSTLTRVQVGYDPFLNTAVHRLEVQAQHVEEVMLSCAKLAGRGGRLGDKAKARGERYAAALKRLRRKLADLLARLDATSTLETCTIDVRGEVRPGVEICIGPARLMNQDFLKNVRFSYCDGAVVATHPAGRTALEHHHHHH,not soluble
5,MGSDKIHHHHHHQIAPAPSTGYNCDLALYSVPQANLLARSLQGDTVADQQYRQLVRELAMELRNCRQQVWPRKMAIWVRLYSCDLRPGGLDSLFDGLQALGYNEVFIETFYDGRVLLPAADNPTVWPSVVAEPGLERVDLLAEAIRKGRERGMSVYAWLFTLNYGYSYSQRSDRQDTLARNGRSESSLEIVSGGAQVFVDPFNPVARQDYQTLLRSVLSRRPDGVLFDYVRYPRGTGAASVMTKVADLLIHTTAARQAWINQLNTPAGQALLTEYLDTGRLSPSDRNQLVLLLGDRLKELNLRQDVDPLWSLAVYHAWRGVVEFVDEAVGTVAQAGLPSGAVFFPFGNARVGQQGWDSRMQPWDRFPNSMEYHPMSYALCGDRHDCVMAEVQRVLEAKPNSIVQPAIAGTWGANFNAHLPLEQRMAALRSTFGDRIDRVSHFSLAWMDPQGERQRQRCRL,not soluble
6,MGHHHHHHSHMNVVKASPQSALLLYISELIQEKNPMNAMNVVKPSARKYASYNMRDVIQERLPLYVPSAENPIHTNMASLPIREFTQERNLMSAMNVERPSPQSQYSMYIKERIQERGRMDAVIVRKPSPTYQTLSNIRKCTQEKWVESVKLKTPVMESHSSFLISELMQKKTLLVP,not soluble
7,MSLTDRLRATYRVKATAASIEARAKGIAVEQSVEMPLSAIDDPAVLDGIVGVVEEITERGEDCFEVRLALSTATIGGDAGQLFNMLFGNTSLQDDTVLLDIDLPDDLLASFGGPNIGAAGLRARVGASADRALTCSALKPQGLPPDRLADLARRMALGGLDFIKDDHGMADQAYAPFASRVGAVAAAVDEVNRQTGGQTRYLPSLSGHLDQLRSQVRTGLDHGIDTFLIAPMIVGPSTFHAVVREFPGAAFFAHPTLAGPSRIAPPAHFGKLFRLLGADAVIFPNSGGRFGYSRDTCQAVAEAALGPWGGLHASLPVPAGGMSLARVPEMIATYGPDVIVLIGGNLLEARDRLTEETAAFVASVAGAASRGCGLAEGHHHHHH,soluble
8,MAVPATIPLTITNNSGRAEQIHIYNLGTELSSGRQGWADASGAFHPWPAGGNPPTPAPDASIPGPAPGRSTTIQIPKFSGRIYFSYGRKMEFRLTTGGLVQPAVQNPTDPNRDILFNWSEYTLNDSGLWINSTQVDMFSAPYTVGVRRGDGTTLSTGKLRPGGYNGVFNALRGQSGGWANLIQTRSDGTVLRALSPLYGVETGALPASVMDDYINRVWNKYTGTDLIVTPFADRPDVRYTGRVSGGVLRFTDGSGAVVTTFQKPDASSVFGCHRLLDAPNDQVRGPISRTLCAGFNRTTLLANPHQPDRSAAGFYQEPVTNHYARIIHAHMADGKAYGFAFDDVGHHESLVHDGDPRGASLTLDPFD,soluble
9,MLSSQAYDIAIVGGGMVGLATAIGLAQADLNVVVIDAGHTEAVSGEPRLRVSAINKASQRLLEHLGAWHYVDASRATPYQKMAVWDKDGFGKIAFDASSISEPSLGAIIENDAISYALAKRASEFDNITHIENQRLERIAFGEREAWLTLANSADAEIESVSAALVIAADGANSWVREQCKIPLTFWDYGHHAIVATIRSEMPHLATARQVFLQDGPLAFLPLYEDNLCSIVWSVPPERATELLAMDKVQFERNLTAAFDGRLGICKLESERQAFPLRMRYARHFARHRLVLAGDAAHTIHPLAGQGVNLGFLDAASIIEVISELQQAGKDIGDYAELRALERWRKADAMEMIAAMEGFKRLFEGSNPVKKAIRDLGLNLVDNVAGLKTVFMQQAMGNKSSLPKLCRLEHHHHHH,soluble
10,MRIHSPYPASWALAQRIGYLYSEGEIIYLADTPFERLLDIQRQVGQCQTMTSLSQADFEARLEAVFHQNTGESQQIAQDIDQSVDLLSLSEEMPANEDLLNEDSAAPVIRLINAILSEAIKETASDIHIETYEKTMSIRFRIDGVLRTILQPNKKLAALLISRIKVMARLDIAEKRIPQDGRISLRIGRRNIDVRVSTLPSIYGERAVLRLLDKNSLQLSLNNLGMTAADKQDLENLIQLPHGIILVTGPTGSGKSTTLYAILSALNTPGRNILTVEDPVEYELEGIGQTQVNTRVDMSFARGLRAILRQDPDVVMVGEIRDTETAQIAVQASLTGHLVLSTLHTNSASGAVTRLRDMGVESFLLSSSLAGIIAQRLVRRLCPQCRQFTPVSPQQAQMFKYHQLAVTTIGTPVGCPHCHQSGYQGRMAIHEMMVVTPELRAAIHENVDEQALERLVRQQHKALIKNGLQKVISGDTSWDEVMRVASATLESEA,not soluble
11,MAHHHHHHMTILHNPGLPRVLNRITPQRLELTLMLIKERKKKLRYLGSYLQHYNDRTFLYNAMGGLNGTKFIIERHHHRAQYCHPTLHNERYSVRTIKMKGAQFDQVGNFTRNTWDCSVATTNLFQDATFRRHLSAIHKDEAIALLEGWGVKYVLLDEVRKPSVQDSIYVRHNLYIHKFPHIPDPVTNVYHGDADWKWKGDEKIDYTSYGASTKDERNTFQSLWSAAVRESKDSGVAKTVQAGKKL,not soluble
12,MYPLTLLRISRNRIVELELKNNDQLRGLLHKCDMAMNLHLKSVTIQKEDGSSIFINECYLKGTSIRLVKLESKILLEQREECVSNNKA,not soluble
13,MGSDKIHHHHHHMDLRDLTYFETIAELGHLGRAAEKLNRSQPALTKSIQRLEESFGTRLFQRDGRRIKLTPVGELLQARGKELQQSIAQTQREVRDFASGMVGNIRVGCAATMAEYLMPKLTSALLQRTPDVTFKLVIGQDDLLRESLRSGQLDMIICALAPDSDDVTSFAVLKDEAVVIASKHHPIFKTPLQMSDLCAYRWVLPPVSVSSRKWLDTTFAAHGLPLPTVQIEANSISLLPGLIAQSNLLSFVARESLEFGKTMQHLREVPLEQTTLKRTIGVTLRKGGYLSPAAEGMLQMLRDNGGDFLGWG,not soluble
14,MMRPTVFSSKAVISSSSLSASLAGAKIIEKGGNIFDAAIAVSSVLSVTQNNLCGLGGDAFALVRYNGRVKGYNGSGKSSRNVNRGLYFELGYSRIPERGIYSAITVPGLVDLWNSLYLEYATMRFSDLISDAIKYAETGFYITRHYEESLIASSPILGQYNWSNQFMPYGKIPAEGDLFIQKDLAGTLREIAEEGPRSFYDGYLSDIIFKAMEKTNLLIDSKDLSDHKTLAANPVKSTYMDYDVFETAPNSQGATVNYWLALLEQKIQNKIPRPVDIVESGLEAYRWRSMFIGDPERMPFNGDLLSKGAGPYYNNPRVPEDKGDTTYFSISDANGNSISMIQSNYMGFGSGIIPEGTGFVLQNRGSYFTLDDKHHNSLEPRKRTFHTLAACIIEKDGELVYSLGTMGGDIQPQVQVQIITGLINQDLMPQEAIERPRWAFPATIYEQPSVLNVEDTSLINENETRLRINPMKYSSSFGTAQVTALLNGRVAGGSDPRGDGFSIPVMAGDPLEHHHHHH,not soluble
15,MISRIHIEEFRDIGDLELFFLPGVNLLIGDNGSGKTSVLKACQYVLGTFFCGFKMDHTPTWTQLTPEAKDFRRRVSSDGDELMKHPIKFNFDLRYEENGQNPIELTDQILTKRNTLGRALTTTFQDHQDYTKGLLEGYATDEGRYRPLPVFVFYSVEDIHTKRKVSHSLFQKYRHMASFGYYHALTENAFLDFWIKRMLILREEEQAGNHELAVVRGALLSALGTDGAGVLQDLSIRINKKAVYWKLLDGREISSEHLPDGLRRVISIVVDLAFRCALLNQTLYQSDSALKSEGTVLIDEIDLHLHPRLQASILKGLRKAFPRLQFIITSHAPMVMSSVDADDKYNIVYKMSYNQEMSQYEALKQSTYGLDVSTIMRMILGLAPRDKQVDERLTHLFDLIDLEKYSEATIALQSLQDQFDDSLPELSKASVMLHFLSSEQNEENH,not soluble
16,MIDVHCHLVDNKFKEDLDDVIGHAHATGIQKMINFPEFESQFEKSIGISKKWPGSVYTGIGIHPIQKRGKSAKMKHISKMEQFFVEHERDIICVGECGLDHTISQFKLTTEDFEEQETVFKWQIDLAKHFEKPLNVHSRSAARRTIEILLECHVAPDQVVLHAFDGTPGDLKLGLEAGYLFSIPPSFGKSEETTQLIESIPLSQLLLETDSPALGPEKGCKNVPANLRISAEIVAKIKKLEIDDIISATSTNANRIFKF,soluble
17,MGSDKIHHHHHHAVVPGKKDFINENTPGSKVVQTPEGAWFKDDKNRQEWSITSEDGLRLKAIYLPADKKSNRTVIMAHGYMGSAETMSVFAKMYHDWGYNVLAPDARGHGKSQGDYIGFGWPDRKDYVQWIEKVLTENGQQEQITLYGVSMGAATVMMTSGEKLPDNVKAIVEDCGYSTVNQELQYQLKELFNLPSFPLVNVTSGITKLRAGYFFGEASAVKQLQKNHLPMLFIHGENDTFVPFSMLDEVYNATQGPKEKYVVPGAEHAKAYNKNPEKYKETVAAFLDKYIK,not soluble
18,SAAATEHNRPSSGDRNLERRCSPNLSREVLYEIFRSLHTLVGQLDLRDDVVKITIDWNKLQSLSAFQPALLFSALEQHILYLQPFLAKLQSPIKEENTTAVEEIGRTEMGNKNEVNDKFSIGDLQEEEKHKESDLRDVKKTQIHFDPEVVQIKAGKAEIDRRISAFIERKQAEINENNVREFCNVIDCNQENSCARTDAIFTPYPGFKSHVKVSRVVYTYGPQTRPEGIPGSGHKPNSMLRDCGNQAVEERLQNIEAHLRLQTGGPVPRDIYQRIKKLEDKILELEGISPEYFQSVSFSGKRRKVQPPQQNYSLAELDEKISALKQALLRKSREAESMATHHLP,not soluble
19,RKPEEEPQPIDDSSMQFLLAAKDAVSGGIKQNPDFSAQDLAEKMCMSPSQLNRKLTSVVGCSTIGYIQQIKIKLACKLLADESKNISDISIEAGFSDPAYFSRTFKRYMNCSPSQYRQKLLAMPGSDKETV,not soluble
20,MSLFVSLSEKKKFLTWLVNTAPFGRREVLWILNYLLTHDAILNNVHFVENVEKTDRGIRVVADGLGKEPLLLFIQAQEFTDPEQIFHEIRMNWRKALYLECVFPEAWQTSQYLSVLEDNPFAPWNEQVDQEVARAIDQYFKQEEQTQRMALLKAQIDDALETGNKEAFLELSDELNRLKQQEGHHHHHH,soluble
